We go through five molecules from publication PMC8261865, “A Structural View on the Stereospecificity of Plant Borneol‐Type Dehydrogenases” (Chemcatchem, 2021).

Experiment [1] concerns the target Borneol-type dehydrogenase 1 from Salvia rosmarinus (Salvia rosmarinus). The experiment is described as follows: SEC-MALS; Superdex 200 increase 10/300 with miniDAWN TREOS and refractive index detector; 18 °C.
Experiment [2] has the same target. Nature of the experiment: crystal structure; sitting-drop vapor diffusion at 18 °C; two conditions: high NaCl (2.7-3.2 M, Bis-Tris pH 5.5-7.2) and pentaerythritol propoxylate (PO/OH, HEPES pH 7.0-7.8); tetramer in both.
Experiment [3] has the same target. The experiment is described as follows: SEC; HiLoad 16/60 Superdex 200; Tris-HCl 100 mM, 500 mM NaCl, pH 8; 1 mL/min; calibrated with mass standards (44-440 kDa).
The target in the next experiment is T1, AaADH2 (Artemisia annua, UniProt E5DD06).
T1 construct: gene Adh2
T1 sequence (E5DD06 1-265): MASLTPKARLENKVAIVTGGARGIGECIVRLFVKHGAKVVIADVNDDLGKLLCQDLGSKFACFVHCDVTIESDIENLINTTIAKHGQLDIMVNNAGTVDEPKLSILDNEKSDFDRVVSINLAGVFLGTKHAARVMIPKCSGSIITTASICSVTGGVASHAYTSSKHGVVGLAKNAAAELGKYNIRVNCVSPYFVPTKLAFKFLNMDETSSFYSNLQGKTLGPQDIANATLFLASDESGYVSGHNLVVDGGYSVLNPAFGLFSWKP
The experiment is described as follows: spectrophotometric cofactor use. The format is biochemical.

The target of experiment [4] is Borneol-type dehydrogenase 2 from Salvia rosmarinus (Salvia rosmarinus). Nature of the experiment: SEC; HiLoad 16/60 Superdex 200; Tris-HCl 100 mM, 500 mM NaCl, pH 8; 1 mL/min; calibrated with mass standards (44-440 kDa).
For experiment [5], the target named is Borneol-type dehydrogenase 3 from Salvia officinalis (Salvia officinalis L.). The description is as above.
Another experiment deals with T2, SrBDH1 (Salvia rosmarinus, UniProt A0A8K1HPF5).
T2 construct: N-terminal His-tag (pET15b), codon-optimised, E. coli BL21(DE3); homotetramer by SEC/MALS
T2 sequence (A0A8K1HPF5 1-270): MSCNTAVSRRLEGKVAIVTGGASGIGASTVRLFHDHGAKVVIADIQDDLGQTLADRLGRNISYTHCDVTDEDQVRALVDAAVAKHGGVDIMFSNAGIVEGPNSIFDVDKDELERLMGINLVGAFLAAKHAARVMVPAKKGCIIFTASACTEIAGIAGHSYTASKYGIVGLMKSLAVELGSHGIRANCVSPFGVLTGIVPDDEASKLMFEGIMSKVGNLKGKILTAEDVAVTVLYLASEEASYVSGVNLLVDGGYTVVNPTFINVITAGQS
The experiment is described as follows: X-ray crystal structure of binary complex ([…] Å). The experiment is classed as binding. As to conditions: NAD+ co-purified with the enzyme; two crystal forms (high salt; PO/OH).

Regarding “Borneol-type dehydrogenase 1 from Salvia rosmarinus (enzyme)”, the stoichiometry N in experiment [1], in experiment [2] and in experiment [3] was 4 each time.
Regarding `NC(=O)c1ccc[n+]([C@@H]2O[C@H](COP(=O)(O)OP(=O)(O)OC[C@H]3O[C@@H](n4cnc5c(N)ncnc54)[C@H](OP(=O)(O)O)[C@@H]3O)[C@@H](O)[C@H]2O)c1` [NADP^+], the spectrophotometric cofactor use entry at AaADH2 was “AaADH2 was the only enzyme also capable of using NADP^+”.
The molecule “Borneol-type dehydrogenase 2 from Salvia rosmarinus (enzyme)” came in with a stoichiometry N in experiment [4] of 4.
For “Borneol-type dehydrogenase 3 from Salvia officinalis (enzyme)”, in experiment [5], the stoichiometry N worked out at 4.
For `NC(=O)c1ccc[n+]([C@@H]2O[C@H](COP(=O)(O)OP(=O)(O)OC[C@H]3O[C@@H](n4cnc5c(N)ncnc54)[C@H](O)[C@@H]3O)[C@@H](O)[C@H]2O)c1` [NAD^+], the “X-ray crystal structure of binary complex (2.8 Å)” value at SrBDH1 was “the structure represents the binary complex (SrBDH1 ⋅ NAD^+ /high salt)”.
